In patent publication CN117700556A (SUZHOU ABCARTA MEDICAL TECH CO LTD; XIANGYA HOSPITAL …, dated 2024):

Experiments:
[1] = target: T1, 叶酸受体α(Folate receptor alpha，FRα) (human, UniProt P15328 25-234); experiment: immunohistochemistry on FFPE ovarian and breast cancer tissue, antibody at 0.5 μg/mL
T1 construct: whole, on cells; also called FRα蛋白

[2] = target: T2, FRα抗原(SEQ ID NO:1)合成多肽; experiment: ELISA screening of hybridoma clones on the SEQ ID NO:1 peptide
T2 construct: KLH-coupled for immunisation; also called FRα的多肽
T2 peptide: RIAWARTELLNV

T1 sequence (P15328 25-234): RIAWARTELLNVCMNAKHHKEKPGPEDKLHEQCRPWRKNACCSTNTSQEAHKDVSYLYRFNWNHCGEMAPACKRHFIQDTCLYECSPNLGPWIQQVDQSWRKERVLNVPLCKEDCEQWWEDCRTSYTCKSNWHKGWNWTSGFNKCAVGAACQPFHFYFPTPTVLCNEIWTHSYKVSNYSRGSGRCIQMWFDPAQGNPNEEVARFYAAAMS

B1: 436I6G8抗FRα小鼠单克隆抗体 (antibody, V domains shown)
VH: EVQLQQSGVELVRSGASVKVSCTPSGFNIKDYFINWVKQRPEQGLEWIGWIDPENGDTEYAPKFQGKATMTADTSSNTAYLQLSSLTSEDTAVYYCYAERVVYWGQGTLITVSA
VL: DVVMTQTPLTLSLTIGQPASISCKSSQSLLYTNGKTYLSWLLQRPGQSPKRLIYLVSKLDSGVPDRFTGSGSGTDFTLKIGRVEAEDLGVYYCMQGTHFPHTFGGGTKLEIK
notes: Variable regions were cloned into InvivoGen pFUSE-CHIg-mG1 and pFUSE2-CLIg-mK (mouse IgG1 heavy, mouse kappa light constant regions); also called 436I6G8克隆的FRα小鼠单克隆抗体; 436I6G8抗FRα单克隆抗体
- binding result [1]: binds
- binding result [2]: binds
